Reference: publication PMC6726503 (Structure (London, England : 1993), 2019)

Molecular target: T1, TGF-β2DM:TβRII binary complex (human, UniProt P37173 23-166)
T1 chain 1: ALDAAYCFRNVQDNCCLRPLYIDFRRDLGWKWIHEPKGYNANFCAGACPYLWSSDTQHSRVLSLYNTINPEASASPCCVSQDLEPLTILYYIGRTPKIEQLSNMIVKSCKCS
T1 chain 2: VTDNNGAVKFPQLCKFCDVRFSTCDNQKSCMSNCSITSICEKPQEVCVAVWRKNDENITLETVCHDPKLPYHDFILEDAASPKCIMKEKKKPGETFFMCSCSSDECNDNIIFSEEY
Test: SEC-MALS

B1: full-length rat betaglycan ectodomain (domain or fragment, UniProt P26342 24-789, looked up)
chain: GPEPSTRCELSPINASHPVQALMESFTVLSGCASRGTTGLPREVHVLNLRSTDQGPGQRQREVTLHLNPIASVHTHHKPIVFLLNSPQPLVWHLKTERLAAGVPRLFLVSEGSVVQFPSGNFSLTAETEERNFPQENEHLLRWAQKEYGAVTSFTELKIARNIYIKVGEDQVFPPTCNIGKNFLSLNYLAEYLQPKAAEGCVLPSQPHEKEVHIIELITPSSNPYSAFQVDIIVDIRPAQEDPEVVKNLVLILKCKKSVNWVIKSFDVKGNLKVIAPNSIGFGKESERSMTMTKLVRDDIPSTQENLMKWALDNGYRPVTSYTMAPVANRFHLRLENNEEMRDEEVHTIPPELRILLDPDHPPALDNPLFPGEGSPNGGLPFPFPDIPRRGWKEGEDRIPRPKQPIVPSVQLLPDHREPEEVQGGVDIALSVKCDHEKMVVAVDKDSFQTNGYSGMELTLLDPSCKAKMNGTHFVLESPLNGCGTRHRRSTPDGVVYYNSIVVQAPSPGDSSGWPDGYEDLESGDNGFPGDGDEGETAPLSRAGVVVFNCSLRQLRNPSGFQGQLDGNATFNMELYNTDLFLVPSPGVFSVAENEHVYVEVSVTKADQDLGFAIQTCFLSPYSNPDRMSDYTIIENICPKDDSVKFYSSKRVHFPIPHAEVDKKRFSFLFKSVFNTSLLFLHCELTLCSRKKGSLKLPRCVTPDDACTSLDATMIWTMMQNKKTFTKPLAVVLQVDYKENVPSTKDSSPIPPPPPQIFHGLDTLTV
  stoichiometry N: 1 BG_(O-ZP) per TGF-β2DM dimer
